Results as given in the supplement of paper PMC12764529.
± gives the half width of the 95% confidence interval.

Experiments:
[1] = folding stability dG unfold from trypsin proteolysis; higher = more stable
How it was run: (§1)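 Designed mini-proteins with no cysteine and under 80 residues were kept only if AlphaFold2 dimer inter-PAE was above 15. In a PA-tagged cDNA display construct, they were digested with trypsin and chymotrypsin and then sequenced. K50 was inferred by Bayesian fitting of counts, and unfolding free energy was derived per protease or combined against a sequence-predicted unfolded-state K50 and a shared folded-state K50.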

[2] = folding stability dG unfold from chymotrypsin proteolysis; higher = more stable
How it was run: as §1

[3] = folding stability dG unfold (combined trypsin and chymotrypsin); higher = more stable
How it was run: as §1

Row | Sequence | folding stability dG unfold [1] [kcal/mol] | folding stability dG unfold [2] [kcal/mol] | folding stability dG unfold [3] [kcal/mol]
1 | SAGGSAGGSADGNTPVEVTITLTDPKTGAVTTVPVVLPTSVSVEEVAAELAAKFGLTTVTVTSAGGSAGGSA [r18_58_JUSTAS] | 1.06 ± 0.027 | 0.521 ± 0.04 | 0.864 ± 0.037
2 | SAGGSAGGSADKIEIRVKLKIPNTDEILTFPIWVDPENPEEVAKAIAAWLEKNGYEIESFEGSAGGSAGGSA [r18_3_TrMRF] | 3.53 ± 0.23 | 4.14 ± 0.15 | 3.98 ± 0.16
3 | SAGGSAGGSADKIPVKIKVKLKDGDKEYEVTVTVTLDVNDPNLDAFAKELASSGKIEEVEASAGGSAGGSAG [r3_30_TrMRF] | 0.877 ± 0.072 | 1.03 ± 0.15 | 0.973 ± 0.19
4 | SAGGSAGGSADNPDDKKKQKPKPEIKVKVEWVVIPNGFLIFEITIAGGITLTIIIPFPPNMFSAGGSAGGSA [r18_192_TrROS] | 2 ± 0.058 | 3.09 ± 0.035 | 2.84 ± 0.16
5 | SAGGSAGGSADPNAFPITIFTFKMEIEDVEKTPNGQPELRYKMEVVEIRPIWLPPDDLEDLSAGGSAGGSAG [r3_121_TrROS] | 3 ± 0.16 | 4.39 ± 0.097 | 3.79 ± 0.15
6 | SAGGSAGGSAEEEEMPVEELVRRKAREVEEAFPGLRGERRITVTVTLPEGETWTAELVLPLSAGGSAGGSAG [r3_64_TrMRF] | 0.19 ± 0.19 | 0.502 ± 0.18 | 0.507 ± 0.13
7 | SAGGSAGGSAEELVKYLAKEHGHPPGKEVTIPFDNWMIKIRYNNDGVPVGVEIKPMPPDDMSAGGSAGGSAG [r3_468_TrROS] | 0.717 ± 0.025 | 0.288 ± 0.12 | 0.593 ± 0.098
8 | SAGGSAGGSAEKTLTVVIKVKPNKTPEEIAKEIKKKLNLPNVEIVSIEYDKETNYITIKVKVSAGGSAGGSA [r18_481_TrROS_Hall] | 3.6 ± 0.086 | 3.39 ± 0.056 | 3.47 ± 0.12
9 | SAGGSAGGSAEPPEPEVVAVTVEITEEDGELTITVTNEDTGEKYTFTLKNVEVKPGDTLLIRSAGGSAGGSA [r18_89_TrROS_Hall] | 0.402 ± 0.26 | 1.77 ± 0.34 | 1.21 ± 0.56
10 | SAGGSAGGSAEYIVVNSDEQLKALKELGGVKEVERKENFVVVEFPDIPPELREKLLEVIKESAGGSAGGSAG [r3_398_TrMRF] | -0.0633 ± 0.15 | -0.805 ± 0.94 | -0.366 ± 0.5
11 | SAGGSAGGSAFIRAEYKLPENKVLEIEIPVPESVLKKMSIEEVKELFKKLGLPDDVKIEFYDESAGGSAGGS [r12_742_TrMRF] | 1.43 ± 0.041 | 1.78 ± 0.15 | 1.66 ± 0.098
12 | SAGGSAGGSAGAANDPKKIPIHIFPPDGKPIFKVKIEVYDNGIKIKIEWHPSPDGLYPMISAGGSAGGSAGG [r11_874_TrROS] | 1.9 ± 0.089 | 1.98 ± 0.082 | 1.99 ± 0.14
13 | SAGGSAGGSAGAAPDGETVRITAVFVNPETQEVFVVEATINPDGELTMEVKEVFKLPEGLSAGGSAGGSAGG [r11_226_TrROS_Hall] | 1.42 ± 0.033 | 2.782 ± 0.017 | 2.36 ± 0.068
14 | SAGGSAGGSAGAAVSPEELKEKAKKEGYDGEVVVTRLPDGTLRVTVKDKGKKSEITVPLESAGGSAGGSAGG [r11_410_JUSTAS] | 0.263 ± 0.064 | 0.942 ± 0.041 | 0.672 ± 0.11
